Data set [1] in a line: Feasibility test 2: nuclease and deaminase treatment of yeast lysate carried out simultaneously. Conditions: simultaneously with nuclease, 70° C., pH5, 3 hours or 5 hours. As for the experimental part:
In test 2, treatment with nuclease and treatment with deaminase were carried out simultaneously. Specifically, the treatment was carried out by the following procedure and the IMP conversion rate was calculated. Firstly, nuclease “AMANO” G (Amano Enzyme Inc., 0.1% w/w yeast solid) and “Deamizyme (50,000 units) (trade name of Amano Enzyme Inc., 0.01 to 0.04% w/w yeast solid)” that is an AMP deaminase agent derived from the test enzyme (Aspergillus melleus) or a crude enzyme solution prepared by using Streptomyces murinus were added to yeast lysate (YL-15, 0.2%) and they were reacted with yeast lysate under the conditions at a temperature of 70° C. and pH5 for a predetermined time (3 hours or 5 hours). Then, the reacted product was heat treated, and then subjected to HPLC analysis. Note here that added amount of AMP deaminase derived from Streptomyces murinus was set so that the activity value thereof became the same as that of “Deamizyme (50,000 u/mg product)” (trade name, Amano Enzyme Inc.)

Data set [2] is described as follows: Relation between reaction temperature and activity of purified enzyme. The data set is classed as biochemical. Conditions: reaction temperature 75° C.; activity at 65° C. = 100%. On the procedure: (§1) By using the decrease of OD265 at the time of reaction as an index, the enzyme activity was measured. To 1.5 ml of solution obtained by mixing 0.017M 5′ AMP-2Na and 1/15M phosphate buffer solution (pH 5.6) at the ratio of 1:2, 0.5 ml of sample solution was added so as to obtain a reaction solution, which was reacted at 37° C. for 15 minutes. Then, 2% perchloric acid solution was added so as to stop the reaction and 100 μl of the solution was taken out. Water was added to the solution so that the total amount was 5 ml. Then, OD265 was measured. The value similarly measured at reaction time of 0 minute was defined as a blank. Under the above-mentioned conditions, a case where an absorbance difference is reduced by 0.001 during 60 minutes was defined as one unit.
The relation between the reaction temperature and activity of the obtained purified enzyme was examined. […] As is apparent from the graph of FIG. 7 (a), high activity is observed in the wide range from 40° C. to 70° C. Furthermore, even in the case where the reaction temperature is 75° C., about 50% activity is found. Thus, it is shown that the enzyme acts favorably under the wide range of temperatures.

Data set [3] in a line: Chromatofocusing (isoelectric point). The data set is classed as physicochemical. Conditions: 8.12 = main fraction; at least two isozymes. On the procedure:
In order to obtain an isoelectric point of AMP deaminase derived from Streptomyces murinus obtained by the above-mentioned method, chromatofocusing was carried out. By using MonoP column (Pharmacia), a starting buffer (Start Buffer) and an elution buffer (Poly buffer 96) were adjusted to pH 4.0 with 0.075M Tris acetate buffer (pH9.3) and with hydrochloric acid, respectively. The final amount was made to 100 ml. Furthermore, Pre-gradient with 3 ml, gradient elution with 30 ml and elution with 30 ml were carried out. From the results, it was thought that at least two isozymes were present (pI 8.12, 7.02), but the isoelectric point of main fraction was 8.12. Various properties, including the isoelectric point obtained from the above-mentioned results, of AMP deaminase derived from Streptomyces murinus, are shown in FIG. 11.

Data set [4] is described as follows: Enzyme kinetics (Km, Vmax). The data set is classed as biochemical.
Data set [5] can be described thus: IMP conversion reaction (HPLC). The data set is classed as biochemical. Conditions: 1.1% AMP solution, pH 7.0, 50° C., 4 hours. On the procedure: IMP conversion rate by HPLC of AMP deaminase produced by Aspergillus melleus and Streptomyces murinus was examined. Specifically, by using 1/15M phosphate buffer solution (pH 7.0), 1.1% AMP solution was prepared. To 5 ml of 1.1% AMP solution, 0.5 ml of enzyme solution was added and reacted at 50° C. for 4 hours. Thereafter, heat treatment at 100° C. was carried out for 10 minutes, filter filtration (0.45 μm) was carried out, and HPLC analysis was carried out.

Data set [6] in a line: Thermostability of crude enzyme solutions / culture supernatant: residual AMP deaminase activity after 30 minutes. The data set is classed as physicochemical. Conditions: enzyme solution or culture supernatant treated 30 minutes at 30-75° C., pH 5.6. On the procedure:
as §1, with “unit. […]” for “unit.”
Then, in the genus Streptomyces in the stored strains of Amano Enzyme Inc., screening of AMP deaminase producing strain was carried out. […] Furthermore, the residual activity was measured when the activity obtained when treatment was not carried out was defined as 100%. […]
The thermostability of AMP deaminase produced by transformant (SAD-1) was measured. Culture supernatant of SAD-1 prepared by the above-mentioned method was treated at a predetermined temperature, and the residual AMP deaminase activity was measured (pH 5.6). […]

By Km is commonly meant the concentration of substrate that gives half-maximal velocity. A word on the Vmax: it is the rate approached at saturating substrate.

Where “and” joins values, the source holds several entries; their conditions need not be identical. Equal values may be shown once.

B1: AMP deaminase derived from Streptomyces murinus: thermostable AMP deaminase enzyme produced by Streptomyces murinus IFO14802; amino acid sequence SEQ ID NO: 1 (protein, listed as Streptomyces murinus)
chain: APPPRQATAAEARTDAYLRSVKDRPAALRAFFRQLPKGGDLHNHLSGAVNTDYLIELAAEDGLCIDATMTAVPSPCGPGTRPAADARTDRAFHDAIVRAWSMQDFPPDENGHDHFFDTFGKFGEVTWRHRGKLLAQVADTVVANNQSYLETMVTPASDGAKQLADQVGWDADLTALHRKLAAGGKLDKLVADARKEADDGDAEFRATEHCGTAKARPACGLTVRWISQASRGSSPVRVFTQLDLGMRLAEADSRFVAVNLVQPEDWDSSLENYSLQMRMVGYLRTVYPKAHVTLHAGELWPGLVKPEALKFHIAEAVDIAHTQRVGHGVDLVHEDNWQRTARTMAARQIAVEVPFSSNAQILGVKGAEHPFTTYRRYGVPVVLATDDPGVSRIDISHEYQYAAATYGLGYPELKDLARASLQYAFLPGASLWQGNPTAQGYHPVAACRAERPGQPVHSAACRRLLDGSARARLEWRQEAAFAAFERAHARG
For B1, the IMP production entry in data set [1] is “IMP was produced”. Moreover, the relative activity result in data set [2] is “about 50%”. Further, in data set [3], the “isoelectric point (pI)” value was 8.12 and 7.02. In addition, in data set [4], the Michaelis constant (Km) was 950 µM and the maximal velocity (Vmax) was 3.5e+07 µmol/min/mg. In data set [5], the “IMP conversion rate compared with AMP deaminase produced by Aspergillus melleus” value was “the same level” and the “ratio of the side product (hypoxanthine) compared with Aspergillus melleus” value is given as “smaller”. In addition, the “thermostability (residual AMP deaminase activity)” value in data set [6] was “extremely excellent”.

These data come from US7709240B2, “AMP deaminase originating streptomyces and utilization thereof” (Amano Enzyme Inc., priority 2004, dated 2010).
